Usually Kd stands for the concentration at which binding is half-saturated. A higher Kd goes with lower affinity.

The target in data set [1] is SUZ12(N) 3D;RBBP4;MTF2 full-length (Homo sapiens;Homo sapiens;Homo sapiens?, UniProt Q15022;Q09028;Q9Y483 76-545;1-425;1-593, K195D;R196D;K197D||). Put plainly: EMSA. In general terms: Mobility shift assays separate free from complexed probe on a gel.
In data set [2] the target is SUZ12(N);RBBP4;MTF2 full-length (Homo sapiens;Homo sapiens;Homo sapiens?, UniProt Q15022;Q09028;Q9Y483 76-545;1-425;1-593, ||). Put plainly: EMSA.
Chain of SUZ12(N);RBBP4;MTF2 full-length (Q15022 76-545, chain 1 of 3): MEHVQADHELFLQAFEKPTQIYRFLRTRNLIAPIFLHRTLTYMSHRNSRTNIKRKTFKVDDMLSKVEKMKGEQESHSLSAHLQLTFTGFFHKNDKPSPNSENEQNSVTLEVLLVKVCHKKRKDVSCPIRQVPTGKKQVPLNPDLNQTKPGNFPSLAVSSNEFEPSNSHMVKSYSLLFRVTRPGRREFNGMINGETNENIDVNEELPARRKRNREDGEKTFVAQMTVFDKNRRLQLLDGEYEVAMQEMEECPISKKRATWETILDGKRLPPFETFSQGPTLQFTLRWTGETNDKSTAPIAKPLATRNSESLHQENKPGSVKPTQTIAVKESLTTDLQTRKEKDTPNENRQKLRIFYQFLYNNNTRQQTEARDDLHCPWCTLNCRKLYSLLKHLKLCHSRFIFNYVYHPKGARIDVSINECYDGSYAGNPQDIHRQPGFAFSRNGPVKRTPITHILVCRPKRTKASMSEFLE
Chain of SUZ12(N);RBBP4;MTF2 full-length (Q09028 whole entry, chain 2 of 3): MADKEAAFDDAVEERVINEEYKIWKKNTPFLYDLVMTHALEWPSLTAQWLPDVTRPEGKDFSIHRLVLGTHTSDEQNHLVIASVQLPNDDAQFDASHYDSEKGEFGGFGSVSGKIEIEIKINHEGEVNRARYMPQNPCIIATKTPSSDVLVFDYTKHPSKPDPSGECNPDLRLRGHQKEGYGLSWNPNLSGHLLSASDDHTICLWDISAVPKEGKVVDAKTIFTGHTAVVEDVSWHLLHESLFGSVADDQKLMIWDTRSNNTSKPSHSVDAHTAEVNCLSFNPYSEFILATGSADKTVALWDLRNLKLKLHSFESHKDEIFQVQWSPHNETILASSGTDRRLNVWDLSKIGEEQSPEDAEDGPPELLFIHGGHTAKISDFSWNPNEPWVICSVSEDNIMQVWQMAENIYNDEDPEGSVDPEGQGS
Chain of SUZ12(N);RBBP4;MTF2 full-length (Q9Y483 whole entry, chain 3 of 3): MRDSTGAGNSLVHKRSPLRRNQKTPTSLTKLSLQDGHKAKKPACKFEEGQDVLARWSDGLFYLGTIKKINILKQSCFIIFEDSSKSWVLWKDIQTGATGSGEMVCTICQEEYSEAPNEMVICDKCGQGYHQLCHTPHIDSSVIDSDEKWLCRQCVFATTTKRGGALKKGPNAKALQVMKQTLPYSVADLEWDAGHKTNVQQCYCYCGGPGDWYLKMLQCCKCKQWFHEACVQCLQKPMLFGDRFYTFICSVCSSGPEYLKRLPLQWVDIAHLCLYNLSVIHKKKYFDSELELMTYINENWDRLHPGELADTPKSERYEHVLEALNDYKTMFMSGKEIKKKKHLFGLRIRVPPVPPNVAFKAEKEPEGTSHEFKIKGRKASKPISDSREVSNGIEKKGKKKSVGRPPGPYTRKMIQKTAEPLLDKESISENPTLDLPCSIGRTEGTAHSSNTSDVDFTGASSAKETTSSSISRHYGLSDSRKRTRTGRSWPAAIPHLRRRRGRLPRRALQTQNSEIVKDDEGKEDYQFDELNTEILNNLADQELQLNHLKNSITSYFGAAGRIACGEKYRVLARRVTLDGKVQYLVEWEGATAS

Chain of SUZ12(N) 3D;RBBP4;MTF2 full-length (Q15022 76-545 K195D/R196D/K197D, chain 1 of 3): as the sequence (Q15022 76-545, chain 1 of 3) above, with K120D, R121D, K122D counted along it
Chain of SUZ12(N) 3D;RBBP4;MTF2 full-length (Q09028 whole entry, chain 2 of 3): as the sequence (Q09028 whole entry, chain 2 of 3) above
Chain of SUZ12(N) 3D;RBBP4;MTF2 full-length (Q9Y483 whole entry, chain 3 of 3): as the sequence (Q9Y483 whole entry, chain 3 of 3) above

B1: CGI-LHX6 100 bp (dsDNA)
DNA 1: GTGGTGGTGGTGGTTGAGAAAATAAAACCCAGAGCGCTAGGAGCATCCGCCCGCTCGACGCGCGCCGGGAAATTGAAGCGGGGATATTGACACCGATTCA
DNA 2: TGAATCGGTGTCAATATCCCCGCTTCAATTTCCCGGCGCGCGTCGAGCGGGCGGATGCTCCTAGCGCTCTGGGTTTTATTTTCTCAACCACCACCACCAC
Molecule B1 returned a binding signal in data set [1] above 25 fold weaker than WT. This molecule also displayed a Kd in data set [2] of 17.6 nM.

The record behind these values is paper PMC7571800.
